We go through one substance from PMC7055233.

Experiment [1] concerns the target MapZ cytoplasmic domain (MapZ_(cyto)), wild type, residues 1-159 (S. pneumoniae (strain ATCC BAA-255/R6)) (UniProt Q8DR55). Nature of the experiment: NMR titration; 1H-15N BEST-TROSY of 15N MapZ_(cyto) (30 to 50 µM, one sample for each ratio) with unlabelled monomeric FtsZb (no GTP, no MgCl2), 5 °C; peak intensity decrease; apparent constants, 1:1 complex assumed.

Experiment [2] has the same target. Nature of the experiment: NMR titration; 1H-15N BEST-TROSY of 30 µM 15N MapZ_(cyto) with polymeric FtsZb at 1:1, 1:3, 1:4 and 1:6; 30 mM HEPES, 200 mM KCl, pH 7.5, 10 mM GTP and MgCl2, 5 °C; peak intensity decrease; apparent constants, 1:1 complex assumed.

Chain of UniProt Q8DR55 (Q8DR55 other isoform, or with tags, fused parts or gaps): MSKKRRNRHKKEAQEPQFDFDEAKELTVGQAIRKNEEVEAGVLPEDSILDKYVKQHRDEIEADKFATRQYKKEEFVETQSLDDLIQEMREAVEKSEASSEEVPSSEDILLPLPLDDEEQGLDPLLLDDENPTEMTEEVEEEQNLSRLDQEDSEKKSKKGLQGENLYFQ

“FtsZb, wild-type FtsZ from S. pneumoniae with an N-terminal glycine left after removal of GST by TEV protease (natural protein)”: the Kd in experiment [1] and in experiment [2] was 10 to 100 µM throughout.
